Laboratory results taken from the RNAGym collection of RNA variant scans (doi:10.1073/pnas.2313332121).

B1: TPR t1 (parent)
chain: GACCAAUCUGCCCUCAGAGCUCGAGAACAUCUUCGGAUGCAGAGGAGGCAGGCUUCGGUGGCGCGAUAGCGCCAACGUCCUCAACCUCCAAUGCAUCCCACCACAUGAUGAUGCCUGAAGAGCCUUGGUUUUUUG

Variants of: B1
Test: polymerase ribozyme fitness, log enrichment relative to wild type (log ratio); higher = more active; in vitro selection for triplet polymerase activity
In short: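 To select mutant libraries of each subunit of a heterodimeric triplet polymerase ribozyme, built by PCR and transcribed, each was annealed with a biotinylated primer, partner subunit and triplets, then incubated frozen at −7 °C. Extended constructs were gel-excised, captured on streptavidin beads and amplified by RT-PCR, in one round carried out in triplicate. Illumina sequencing of input and output libraries kept genotypes with ≥10 input reads and ≥1 read per output. Fitness is the base-2 logarithm of genotype enrichment relative to wild-type enrichment, from inverse-variance-weighted replicate averages.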

Point of comparison: A6C U9C C13U G17A G58A A121G, “polymerase ribozyme fitness (log ratio)” value 0.229. Against it:
- A6U C12A — higher, 0.811
- A6U C12U — lower, -0.0768
- A6G A29G C72G C82G C89A G120C — lower, -4.07
- A6C G23A C98A C115G — lower, -7.8
- A6C G63A — lower, -0.611
- A6U A105C U116C — lower, -6.02
- A6C C73U C89U G113A — lower, -2.7
- A6U C8G G60A C72A U130C — lower, -0.0324
- A6G U14G C28U G110C C115U U125A — lower, -6.22
- A6G C49U G69U — lower, -0.168
- A5U G57A G63U C89G U112C U126A — lower, -3.35
- A6C G57C — lower, -0.375
- A6G C56G A103U — lower, -4.63
- A6C C13G G69A — lower, -3.82
- A5U U21G U55C G61U C79U C114A U126A — lower, -1.56
- A6C G19C A43U A50C U96G — lower, -4.2
- A6C G57C C79A C85U — lower, -2.83
- A6C C12A G52U G61A — lower, -1.1
- A6G G71A C82A A111U — lower, -4.56
- A6C U7A C8G C13A G42C C72A C76G — lower, -2.51
- A6C C8A A66U C85U — lower, -1.77
- A6G A91C — lower, -1.54
- A5U G113U C124A — lower, -3.25
- A6C G48C — lower, -1.5
- A6U C11U — within 0.2 log units, 0.0672
- A6C C13U A37C G69U C98G — lower, -4.9
- A6G A24G C73A — lower, -1.35
- A6C A50U G58A G60C C70U — lower, -3.42
- A6G A29C G45U C102A C124U — lower, -5.32
- A5U G19A G52A G57A A95G — lower, -4.08
- A6C C72U C73U C98G C115A U116G — lower, -7.45
- A6U C8G C13A G19U G61C G93C G120C — lower, -5.97
- A6C A29U G45A G113U — lower, -4.91
- A6G C8U C49G C70A U78C — lower, -3.15
- A6U A91U A121C C124A — lower, -0.453
- A5U G69U — within 0.2 log units, 0.406
- A6G A83U — lower, -0.371
- A6U A50U — lower, -0.776
- A6G C12A C56A C72A — lower, -1.87
- A5U U9A U32C A37U C49U G69U G93A — lower, -1.24
- A6U A105C — lower, -1.94
- A6U C8G G44C C64U U96C — lower, -1.02
- A6C G120U — within 0.2 log units, 0.259
- A6C G120A — within 0.2 log units, 0.157
- A5U G44A C56U G117A — lower, -3.69
- A5U G63A — lower, -0.665
- A5U G63U — lower, -1.8
- A6G C76A C88G A121U G128A — lower, -1.67
- A5U U7C C8U C11U C86A — lower, -1.5
- A5U G113A G122A G127C — lower, -3.33
- A6U A27G C82U G110U — lower, -2.67
- A5U G60U U116C — lower, -1.69
- A6G C72U U112G — higher, 0.809
- A5U G42A — lower, -1.63
- A6G C22U G44C C88U — lower, -6.05
- A6G C8A A26G A84U C99A — lower, -5.28
- A6U A75U C82A C115A U125A G128C — lower, -3.75
- A6G C12U A50U U54G A100C — lower, -6.08
- A5U U54G C79A G110C — lower, -6.31
- A6U C11U G71C — lower, -0.83
- A6U A29U C101A G120C U133A — lower, -4.06
- A5U G52C C62A U112A — lower, -0.939
- A6C C8A A121C — higher, 1.45
- A6U A95C — lower, -0.905
- A6U C8G G60A U130C — lower, -0.0856
- A5U C73G C94G — lower, -2.07
- A6C C8A U32C A84U A90G G110C C114U — lower, -5.68
- A6C U9A C11G A74G — lower, -0.26
- A6C C28G U30A G51U G69A C70A C115A G128C — lower, -6.73
- A6G U7G G44U G58C G113A — lower, -0.812
- A6C C97G — lower, -5.16
- A6C C97U — lower, -1.01
- A6G U21C C114A — lower, -0.942
- A6C C13A G48C C49G C85A U92C — lower, -4.52
- A6G C102A — lower, -1.96
- A6G A29U A37G C56U C62G U87G A105C G117C — lower, -5.41
- A6U C11U C80U C102U — lower, -3.5
- A6C C13U A27U C62A C82A — lower, -4.43
- A6C C12U G48C U78G G110C — lower, -4.8
- A6C C8A C49A C56U — lower, -0.31
- A6C G35U U59C A83U C98G A121U — lower, -4.28
- A6C A50C C70A G127U — lower, -4.88
- A6C C40A C70G — lower, -5.35
- A6C C70A C73U — lower, -2.44
- A6C U30G A43C C88U C97G U109G — lower, -6.22
- A5U U9A A18U — lower, -2.06
- A6G G48U — lower, -0.663
- A6U C8G C72U C86G — lower, -0.629
- A6C A108G C115U — lower, -5
- A6G A41U C85G A119U U125G — lower, -6.15
- A6U A18U A74C C85G C115A U129G — lower, -4.74
- A5U C104A — lower, -2
- A6G A43G — lower, -2.57
- A6C G61A U92A — lower, -3.09
- A6U A18U G60U U112C — lower, -0.222
- A6G A41C C56A G69C G93U G117C — lower, -6.65
- A6G C72U C97U — lower, -1.35
- A6C A18U A50C G77U U87A — lower, -3.65
- A6U C8A G71U C101G — lower, -1.45
- A6G C70U — lower, -1.29
- A6U A50G G117A — lower, -1.14
- A6U C12A C124A — higher, 0.761
- A6U A16U — lower, -1.42
- A6C C40A C62U C88A C104A — lower, -5.43
- A6C C70G C82A — lower, -2.15
- A6G C73A U112A G120U U130G — higher, 0.876
- A6U A100C U106A — within 0.2 log units, 0.0954
- A6U C8U — higher, 0.736
- A6U C8G — higher, 0.868
- A6C G63U C115A U116C — lower, -4.89
- A6G C12A A46U C53A C56A — lower, -1.28
- A6U C12U C56U A95G — lower, -0.128
- A6U C12U C76A C115U — lower, -2.81
- A6G G42U C73A C85U U106G G110U — lower, -5.96
- A6G C99A C123U — lower, -5.05
- A5U U126A — lower, -0.78
- A6G U59C — lower, -0.609
- A5U G17A G69A C79U G113U — lower, -6.54
- A6G G36C C72U C80A U116A C123A — lower, -5.42
- A5U U125A U133G — lower, -0.817
- A6C G58C U92G C114A U130A — lower, -4.44
- A6G G45U C73U C98U A111G U125A — lower, -5.29
- A6U A37U — lower, -0.0542
- A6U A37C — lower, -0.207
- A6U A37G C56U — within 0.2 log units, 0.28
- A6C U7G A29G G48C A95C — lower, -3.37
- A5U G19A C72G U112G — lower, -4.06
- A6C U109C G110U C114U — lower, -6.23
- A5U G39A C73A U78C — lower, -0.828
- A6G A46C G48U G52U A95C — lower, -5.42
- A5U U9G G48A U78A — lower, -0.963
- A6G G61U — lower, -0.271
- A6G U9C C13G C89U A90U C94U A105U A121G — lower, -2.84
- A6U A74U — within 0.2 log units, 0.241
- A6U A74C — lower, 0.0283
- A6C C15G A46C G107U G117C — lower, -4.61
- A6C C12A A84G U92C U106G G113C — lower, -5.99
- A6U A41G U81A — lower, -1.63
- A6U A66G C85G — lower, -2.09
- A5U U14G A83C A111C — lower, -2.47
- A5U G48C — lower, -2.24
- A5U G71U C72U C101G G117U — lower, -5.12
- A6G G39U G69U A119U — lower, -0.0303
- A5U G63A U125A — lower, -2.08
- A6C C15A U33G C124G — lower, -5.85
- A6C G61A — lower, -0.848
- A6C G93U A100U — lower, -2.54
- A6G G63U — lower, -1.16
- A6G G63C — within 0.2 log units, 0.397
- A6U C11G U55C — lower, -0.352
- A6C A68G — lower, -3.13
- A6C G61A C115U — lower, -1.31
- A6C C8G G44C C64U U78C — lower, -1.41
- A5U G36C G48U C85U — lower, -2.32
- A6U A29U A66C C115G G117U — lower, -6.19
- A5U U14C A18U G45U G71U A121C — lower, -5.73
- A6G C28U — lower, -0.918
- A6G C13U G51U C82U C94A A111G — lower, -3.66
- A6C G57C C70U — lower, -0.399
- A6C C101A U132A — lower, -1.42
- A6G G47U C64U C99A G120A — lower, -5.98
- A6C U78C — lower, -0.721
- A6C C72U G120U U133A — lower, -0.162
- A6C G44C G61A C80A U112A — lower, -4.74
- A6G C12G A27U G113U U125A — lower, -7.04
- A6C G48U C72U U87C G110U — lower, -2.52
